# In the supplement of paper PMC10567573:
# B1: FBF1 (parent)
# chain: YQRPQDSEDMWGDEDFTFGAYQPT
# Variants of: B1
# Assay: protein stability index of a GFP-peptide fusion (GPS, HEK-293T) (PSI 1-6); higher = more stable
# Details: c terminus: a fixed tail appended
# 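Further: lentivirally expressed fusions sorted by FACS into six bins by GFP to DsRed ratio, PSI derived from sequencing read proportions per bin multiplied by bin number.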
row,Variant,protein stability index
1,YQRPQDSEDMWGLEDFTFGAYQPT [D13L],2.45
2,YQRPQDSEDMWGIEDFTFGAYQPT [D13I],2.13
3,YQRPQDSEDMWGQEDFTFGAYQPT [D13Q],1.79
4,YQRPQDSEDMWGTEDFTFGAYQPT [D13T],1.77
5,YQRPQDSEDMWGCEDFTFGAYQPT [D13C],1.74
6,YQRPQDSEDMWGYEDFTFGAYQPT [D13Y],1.72
7,YQRPQDSEDMWGEEDFTFGAYQPT [D13E],3.13
8,YQRPQDSEDMWGFEDFTFGAYQPT [D13F],2.18
9,YQRPQDSEDMWGNEDFTFGAYQPT [D13N],2.07
10,YQRPQDSEDMWGREDFTFGAYQPT [D13R],2.89
11,YQRPQDSEDMWGWEDFTFGAYQPT [D13W],1.53
12,YQRPQDSEDMWGAEDFTFGAYQPT [D13A],2.1
13,YQRPQDSEDMWGGEDFTFGAYQPT [D13G],2.28
14,YQRPQDSEDMWGMEDFTFGAYQPT [D13M],2.32
15,YQRPQDSEDMWGKEDFTFGAYQPT [D13K],2.52
16,YQRPQDSEDMWGVEDFTFGAYQPT [D13V],1.8
17,YQRPQDSEDMWGPEDFTFGAYQPT [D13P],1.73
18,YQRPQDSEDMWGSEDFTFGAYQPT [D13S],1.85
19,YQRPQDSEDMWGHEDFTFGAYQPT [D13H],1.76
20,YQRPQDSEDFWGDEDFTFGAYQPT [M10F],1.86
21,YQRPQDSEDPWGDEDFTFGAYQPT [M10P],3.34
22,YQRPQDSEDQWGDEDFTFGAYQPT [M10Q],3.71
23,YQRPQDSEDCWGDEDFTFGAYQPT [M10C],3.23
24,YQRPQDSEDNWGDEDFTFGAYQPT [M10N],4.06

row,Variant,protein stability index
1,YQRPQDSEDHWGDEDFTFGAYQPT [M10H],3.47
2,YQRPQDSEDIWGDEDFTFGAYQPT [M10I],2.39
3,YQRPQDSEDRWGDEDFTFGAYQPT [M10R],3.66
4,YQRPQDSEDAWGDEDFTFGAYQPT [M10A],4.18
5,YQRPQDSEDYWGDEDFTFGAYQPT [M10Y],3.11
6,YQRPQDSEDTWGDEDFTFGAYQPT [M10T],3.73
7,YQRPQDSEDKWGDEDFTFGAYQPT [M10K],3.72
8,YQRPQDSEDWWGDEDFTFGAYQPT [M10W],2.81
9,YQRPQDSEDGWGDEDFTFGAYQPT [M10G],3.96
10,YQRPQDSEDDWGDEDFTFGAYQPT [M10D],4.06
11,YQRPQDSEDVWGDEDFTFGAYQPT [M10V],2.75
12,YQRPQDSEDLWGDEDFTFGAYQPT [M10L],2.25
13,YQRPQDSEDSWGDEDFTFGAYQPT [M10S],3.5
14,YQRPQDSEDEWGDEDFTFGAYQPT [M10E],4.53
15,YQRPQDSEDMWGDNDFTFGAYQPT [E14N],1.8
16,YQRPQDSEDMWGDKDFTFGAYQPT [E14K],1.46
17,YQRPQDSEDMWGDRDFTFGAYQPT [E14R],2.05
18,YQRPQDSEDMWGDFDFTFGAYQPT [E14F],1.78
19,YQRPQDSEDMWGDMDFTFGAYQPT [E14M],1.26
20,YQRPQDSEDMWGDPDFTFGAYQPT [E14P],2.03
21,YQRPQDSEDMWGDCDFTFGAYQPT [E14C],2.11
22,YQRPQDSEDMWGDADFTFGAYQPT [E14A],1.67
23,YQRPQDSEDMWGDQDFTFGAYQPT [E14Q],1.94
24,YQRPQDSEDMWGDHDFTFGAYQPT [E14H],2.84

row,Variant,protein stability index
1,YQRPQDSEDMWGDDDFTFGAYQPT [E14D],2.58
2,YQRPQDSEDMWGDLDFTFGAYQPT [E14L],1.66
3,YQRPQDSEDMWGDIDFTFGAYQPT [E14I],1.82
4,YQRPQDSEDMWGDGDFTFGAYQPT [E14G],1.88
5,YQRPQDSEVMWGDEDFTFGAYQPT [D9V],1.66
6,YQRPQDSETMWGDEDFTFGAYQPT [D9T],2.59
7,YQRPQDSEYMWGDEDFTFGAYQPT [D9Y],1.87
8,YQRPQDSEWMWGDEDFTFGAYQPT [D9W],2.01
9,YQRPQDSEDMYGDEDFTFGAYQPT [W11Y],3.74
10,YQRPQDSEDMNGDEDFTFGAYQPT [W11N],4.44
11,YQRPQDSEDMDGDEDFTFGAYQPT [W11D],4.54
12,YQRPQDSEDMKGDEDFTFGAYQPT [W11K],4.27
13,YQRPQDSEDMEGDEDFTFGAYQPT [W11E],4.5
14,YQRPQDSEDMAGDEDFTFGAYQPT [W11A],4.45
15,YQRPQDSEDMQGDEDFTFGAYQPT [W11Q],4.78
16,YQRPQDSEDMTGDEDFTFGAYQPT [W11T],4.33
17,YQRPQDSEDMHGDEDFTFGAYQPT [W11H],4.54
18,YQRPQDSEDMCGDEDFTFGAYQPT [W11C],4.55
19,YQRPQDSEDMFGDEDFTFGAYQPT [W11F],3.83
20,YQRPQDSEDMVGDEDFTFGAYQPT [W11V],4.25
21,YQRPQDSEDMLGDEDFTFGAYQPT [W11L],4.13
22,YQRPQDSEDMRGDEDFTFGAYQPT [W11R],4.43
23,YQRPQDSEDMGGDEDFTFGAYQPT [W11G],4.67
24,YQRPQDSEDMSGDEDFTFGAYQPT [W11S],4.79

row,Variant,protein stability index
1,YQRPQDSEDMPGDEDFTFGAYQPT [W11P],4.87
2,YQRPQDSEDMIGDEDFTFGAYQPT [W11I],4.19
3,YQRPQDSEDMMGDEDFTFGAYQPT [W11M],4.13
4,YQRPQDSEDMWTDEDFTFGAYQPT [G12T],2.55
5,YQRPQDSEDMWKDEDFTFGAYQPT [G12K],2.37
6,YQRPQDSEDMWEDEDFTFGAYQPT [G12E],3.71
7,YQRPQDSEDMWADEDFTFGAYQPT [G12A],2.92
8,YQRPQDSEDMWSDEDFTFGAYQPT [G12S],3.13
9,YQRPQDSEDMWLDEDFTFGAYQPT [G12L],2.28
10,YQRPQDSEDMWHDEDFTFGAYQPT [G12H],2.85
11,YQRPQDSEDMWCDEDFTFGAYQPT [G12C],2.28
12,YQRPQDSEDMWPDEDFTFGAYQPT [G12P],3.79
13,YQRPQDSEDMWFDEDFTFGAYQPT [G12F],2.41
14,YQRPQDSEDMWQDEDFTFGAYQPT [G12Q],3.13
15,YQRPQDSEDMWRDEDFTFGAYQPT [G12R],2.96
16,YQRPQDSEDMWMDEDFTFGAYQPT [G12M],3.12
17,YQRPQDSEDMWWDEDFTFGAYQPT [G12W],2.71
18,YQRPQDSEDMWNDEDFTFGAYQPT [G12N],3.17
19,YQRPQDSEDMWIDEDFTFGAYQPT [G12I],2.43
20,YQRPQDSEDMWDDEDFTFGAYQPT [G12D],4.15
21,YQRPQDSEDMWVDEDFTFGAYQPT [G12V],2.48
22,YQRPQDSEDMWYDEDFTFGAYQPT [G12Y],2.55
